# Reference: IntAct's records for PubMed 23010927
# B1: Multidrug efflux pump accessory protein AcrZ (Escherichia coli (strain K12)), P0AAW9 (parent)
# chain: MLELLKSLVFAVIMVPVVMAIILGLIYGLGEVFNIFSGVGKKDQPGQNH
# partner: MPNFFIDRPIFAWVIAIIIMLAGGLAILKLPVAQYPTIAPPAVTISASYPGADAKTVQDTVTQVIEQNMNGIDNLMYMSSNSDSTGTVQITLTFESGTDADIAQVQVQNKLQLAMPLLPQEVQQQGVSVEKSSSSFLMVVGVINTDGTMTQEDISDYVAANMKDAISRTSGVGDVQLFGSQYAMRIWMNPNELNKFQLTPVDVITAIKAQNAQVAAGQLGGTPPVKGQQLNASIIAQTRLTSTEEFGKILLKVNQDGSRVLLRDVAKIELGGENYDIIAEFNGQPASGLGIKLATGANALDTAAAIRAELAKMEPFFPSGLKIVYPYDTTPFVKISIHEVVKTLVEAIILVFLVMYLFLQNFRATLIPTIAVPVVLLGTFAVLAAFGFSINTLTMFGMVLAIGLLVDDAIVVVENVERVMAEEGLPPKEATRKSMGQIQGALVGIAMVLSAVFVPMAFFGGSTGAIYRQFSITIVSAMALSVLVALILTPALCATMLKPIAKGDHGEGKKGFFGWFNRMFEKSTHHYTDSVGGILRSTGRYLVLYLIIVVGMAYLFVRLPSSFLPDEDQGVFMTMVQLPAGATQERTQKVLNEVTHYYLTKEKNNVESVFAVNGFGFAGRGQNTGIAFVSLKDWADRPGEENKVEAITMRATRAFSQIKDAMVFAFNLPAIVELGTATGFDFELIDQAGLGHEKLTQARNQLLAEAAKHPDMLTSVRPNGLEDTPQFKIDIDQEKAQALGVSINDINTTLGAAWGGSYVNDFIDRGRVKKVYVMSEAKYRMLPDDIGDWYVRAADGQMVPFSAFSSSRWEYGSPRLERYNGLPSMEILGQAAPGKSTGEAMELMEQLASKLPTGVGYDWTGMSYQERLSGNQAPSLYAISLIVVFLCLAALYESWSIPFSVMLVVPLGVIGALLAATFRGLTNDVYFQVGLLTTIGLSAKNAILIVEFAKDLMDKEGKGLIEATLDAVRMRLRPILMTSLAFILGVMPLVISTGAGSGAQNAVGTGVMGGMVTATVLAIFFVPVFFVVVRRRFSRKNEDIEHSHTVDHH
# Variants of: B1
# Details: with acrb_ecoli acrB
row,Variant,effect of a mutation on the interaction
1,G30R,disrupting interaction
